How the values were obtained:
[1] = biological target: T1, TMR-phalloidin-labelled biotinylated actin filaments (Cytoskeleton) (UniProt P68135 1-377, biotin (~1 biotin per monomer)); test: optical trap
[2] = biological target: T1, TMR-phalloidin-labelled biotinylated …; test: optical trap; remark: listed apart in the source

Row | Binder | k0 (detachment rate from actin at zero load) with F3345 [1] [s⁻¹] | k0 (detachment rate from actin at zero load) [2] [s⁻¹]
1 | human β-cardiac myosin subfragment-1 (short S1, sS1 (complex) chain 1: MGDSEMAVFGAAAPYLRKSEKERLEAQTRPFDLKKDVFVPDDKQEFVKAKIVSREGGKVTAETEYGKTVTVKEDQVMQQNPPKFDKIEDMAMLTFLHEPAVLYNLKDRYGSWMIYTYSGLFCVTVNPYKWLPVYTPEVVAAYRGKKRSEAPPHIFSISDNAYQYMLTDRENQSILITGESGAGKTVNTKRVIQYFAVIAAIGDRSKKDQSPGKGTLEDQIIQANPALEAFGNAKTVRNDNSSRFGKFIRIHFGATGKLASADIETYLLEKSRVIFQLKAERDYHIFYQILSNKKPELLDMLLITNNPYDYAFISQGETTVASIDDAEELMATDNAFDVLGFTSEEKNSMYKLTGAIMHFGNMKFKLKQREEQAEPDGTEEADKSAYLMGLNSADLLKGLCHPRVKVGNEYVTKGQNVQQVIYATGALAKAVYERMFNWMVTRINATLETKQPRQYFIGVLDIAGFEIFDFNSFEQLCINFTNEKLQQFFNHHMFVLEQEEYKKEGIEWTFIDFGMDLQACIDLIEKPMGIMSILEEECMFPKATDMTFKAKLFDNHLGKSANFQKPRNIKGKPEAHFSLIHYAGIVDYNIIGWLQKNKDPLNETVVGLYQKSSLKLLSTLFANYAGADAPIEKGKGKAKKGSSFQTVSALHRENLNKLMTNLRSTHPHFVRCIIPNETKSPGVMDNPLVMHQLRCNGVLEGIRICRKGFPNRILYGDFRQRYRILNPAAIPEGQFIDSRKGAEKLLSSLDIDHNQYKFGHTKVFFKAGLLGLLEEMRDERLSRIITRIQAQSRGVLARMEYKKLLERR chain 2: not shown | 36 | 
2 | human β-cardiac myosin sS1-eGFP (MYH7 1-808) S532P with essential light chain (complex) chain 1: MGDSEMAVFGAAAPYLRKSEKERLEAQTRPFDLKKDVFVPDDKQEFVKAKIVSREGGKVTAETEYGKTVTVKEDQVMQQNPPKFDKIEDMAMLTFLHEPAVLYNLKDRYGSWMIYTYSGLFCVTVNPYKWLPVYTPEVVAAYRGKKRSEAPPHIFSISDNAYQYMLTDRENQSILITGESGAGKTVNTKRVIQYFAVIAAIGDRSKKDQSPGKGTLEDQIIQANPALEAFGNAKTVRNDNSSRFGKFIRIHFGATGKLASADIETYLLEKSRVIFQLKAERDYHIFYQILSNKKPELLDMLLITNNPYDYAFISQGETTVASIDDAEELMATDNAFDVLGFTSEEKNSMYKLTGAIMHFGNMKFKLKQREEQAEPDGTEEADKSAYLMGLNSADLLKGLCHPRVKVGNEYVTKGQNVQQVIYATGALAKAVYERMFNWMVTRINATLETKQPRQYFIGVLDIAGFEIFDFNSFEQLCINFTNEKLQQFFNHHMFVLEQEEYKKEGIEWTFIDFGMDLQACIDLIEKPMGIMPILEEECMFPKATDMTFKAKLFDNHLGKSANFQKPRNIKGKPEAHFSLIHYAGIVDYNIIGWLQKNKDPLNETVVGLYQKSSLKLLSTLFANYAGADAPIEKGKGKAKKGSSFQTVSALHRENLNKLMTNLRSTHPHFVRCIIPNETKSPGVMDNPLVMHQLRCNGVLEGIRICRKGFPNRILYGDFRQRYRILNPAAIPEGQFIDSRKGAEKLLSSLDIDHNQYKFGHTKVFFKAGLLGLLEEMRDERLSRIITRIQAQSRGVLARMEYKKLLERR chain 2: not shown |  | 80
3 | human β-cardiac myosin sS1-eGFP (MYH7 1-808) A223T with essential light chain (complex) chain 1: MGDSEMAVFGAAAPYLRKSEKERLEAQTRPFDLKKDVFVPDDKQEFVKAKIVSREGGKVTAETEYGKTVTVKEDQVMQQNPPKFDKIEDMAMLTFLHEPAVLYNLKDRYGSWMIYTYSGLFCVTVNPYKWLPVYTPEVVAAYRGKKRSEAPPHIFSISDNAYQYMLTDRENQSILITGESGAGKTVNTKRVIQYFAVIAAIGDRSKKDQSPGKGTLEDQIIQTNPALEAFGNAKTVRNDNSSRFGKFIRIHFGATGKLASADIETYLLEKSRVIFQLKAERDYHIFYQILSNKKPELLDMLLITNNPYDYAFISQGETTVASIDDAEELMATDNAFDVLGFTSEEKNSMYKLTGAIMHFGNMKFKLKQREEQAEPDGTEEADKSAYLMGLNSADLLKGLCHPRVKVGNEYVTKGQNVQQVIYATGALAKAVYERMFNWMVTRINATLETKQPRQYFIGVLDIAGFEIFDFNSFEQLCINFTNEKLQQFFNHHMFVLEQEEYKKEGIEWTFIDFGMDLQACIDLIEKPMGIMSILEEECMFPKATDMTFKAKLFDNHLGKSANFQKPRNIKGKPEAHFSLIHYAGIVDYNIIGWLQKNKDPLNETVVGLYQKSSLKLLSTLFANYAGADAPIEKGKGKAKKGSSFQTVSALHRENLNKLMTNLRSTHPHFVRCIIPNETKSPGVMDNPLVMHQLRCNGVLEGIRICRKGFPNRILYGDFRQRYRILNPAAIPEGQFIDSRKGAEKLLSSLDIDHNQYKFGHTKVFFKAGLLGLLEEMRDERLSRIITRIQAQSRGVLARMEYKKLLERR chain 2: not shown |  | 104
4 | human β-cardiac myosin sS1-eGFP (MYH7 1-808) H251N with essential light chain (complex) chain 1: MGDSEMAVFGAAAPYLRKSEKERLEAQTRPFDLKKDVFVPDDKQEFVKAKIVSREGGKVTAETEYGKTVTVKEDQVMQQNPPKFDKIEDMAMLTFLHEPAVLYNLKDRYGSWMIYTYSGLFCVTVNPYKWLPVYTPEVVAAYRGKKRSEAPPHIFSISDNAYQYMLTDRENQSILITGESGAGKTVNTKRVIQYFAVIAAIGDRSKKDQSPGKGTLEDQIIQANPALEAFGNAKTVRNDNSSRFGKFIRINFGATGKLASADIETYLLEKSRVIFQLKAERDYHIFYQILSNKKPELLDMLLITNNPYDYAFISQGETTVASIDDAEELMATDNAFDVLGFTSEEKNSMYKLTGAIMHFGNMKFKLKQREEQAEPDGTEEADKSAYLMGLNSADLLKGLCHPRVKVGNEYVTKGQNVQQVIYATGALAKAVYERMFNWMVTRINATLETKQPRQYFIGVLDIAGFEIFDFNSFEQLCINFTNEKLQQFFNHHMFVLEQEEYKKEGIEWTFIDFGMDLQACIDLIEKPMGIMSILEEECMFPKATDMTFKAKLFDNHLGKSANFQKPRNIKGKPEAHFSLIHYAGIVDYNIIGWLQKNKDPLNETVVGLYQKSSLKLLSTLFANYAGADAPIEKGKGKAKKGSSFQTVSALHRENLNKLMTNLRSTHPHFVRCIIPNETKSPGVMDNPLVMHQLRCNGVLEGIRICRKGFPNRILYGDFRQRYRILNPAAIPEGQFIDSRKGAEKLLSSLDIDHNQYKFGHTKVFFKAGLLGLLEEMRDERLSRIITRIQAQSRGVLARMEYKKLLERR chain 2: not shown | 20 | 152
5 | human β-cardiac myosin sS1-eGFP (MYH7 1-808) R237W with essential light chain (complex) chain 1: MGDSEMAVFGAAAPYLRKSEKERLEAQTRPFDLKKDVFVPDDKQEFVKAKIVSREGGKVTAETEYGKTVTVKEDQVMQQNPPKFDKIEDMAMLTFLHEPAVLYNLKDRYGSWMIYTYSGLFCVTVNPYKWLPVYTPEVVAAYRGKKRSEAPPHIFSISDNAYQYMLTDRENQSILITGESGAGKTVNTKRVIQYFAVIAAIGDRSKKDQSPGKGTLEDQIIQANPALEAFGNAKTVWNDNSSRFGKFIRIHFGATGKLASADIETYLLEKSRVIFQLKAERDYHIFYQILSNKKPELLDMLLITNNPYDYAFISQGETTVASIDDAEELMATDNAFDVLGFTSEEKNSMYKLTGAIMHFGNMKFKLKQREEQAEPDGTEEADKSAYLMGLNSADLLKGLCHPRVKVGNEYVTKGQNVQQVIYATGALAKAVYERMFNWMVTRINATLETKQPRQYFIGVLDIAGFEIFDFNSFEQLCINFTNEKLQQFFNHHMFVLEQEEYKKEGIEWTFIDFGMDLQACIDLIEKPMGIMSILEEECMFPKATDMTFKAKLFDNHLGKSANFQKPRNIKGKPEAHFSLIHYAGIVDYNIIGWLQKNKDPLNETVVGLYQKSSLKLLSTLFANYAGADAPIEKGKGKAKKGSSFQTVSALHRENLNKLMTNLRSTHPHFVRCIIPNETKSPGVMDNPLVMHQLRCNGVLEGIRICRKGFPNRILYGDFRQRYRILNPAAIPEGQFIDSRKGAEKLLSSLDIDHNQYKFGHTKVFFKAGLLGLLEEMRDERLSRIITRIQAQSRGVLARMEYKKLLERR chain 2: not shown |  | 155
6 | human β-cardiac myosin sS1-eGFP (MYH7 1-808) D239N with essential light chain (complex) chain 1: MGDSEMAVFGAAAPYLRKSEKERLEAQTRPFDLKKDVFVPDDKQEFVKAKIVSREGGKVTAETEYGKTVTVKEDQVMQQNPPKFDKIEDMAMLTFLHEPAVLYNLKDRYGSWMIYTYSGLFCVTVNPYKWLPVYTPEVVAAYRGKKRSEAPPHIFSISDNAYQYMLTDRENQSILITGESGAGKTVNTKRVIQYFAVIAAIGDRSKKDQSPGKGTLEDQIIQANPALEAFGNAKTVRNNNSSRFGKFIRIHFGATGKLASADIETYLLEKSRVIFQLKAERDYHIFYQILSNKKPELLDMLLITNNPYDYAFISQGETTVASIDDAEELMATDNAFDVLGFTSEEKNSMYKLTGAIMHFGNMKFKLKQREEQAEPDGTEEADKSAYLMGLNSADLLKGLCHPRVKVGNEYVTKGQNVQQVIYATGALAKAVYERMFNWMVTRINATLETKQPRQYFIGVLDIAGFEIFDFNSFEQLCINFTNEKLQQFFNHHMFVLEQEEYKKEGIEWTFIDFGMDLQACIDLIEKPMGIMSILEEECMFPKATDMTFKAKLFDNHLGKSANFQKPRNIKGKPEAHFSLIHYAGIVDYNIIGWLQKNKDPLNETVVGLYQKSSLKLLSTLFANYAGADAPIEKGKGKAKKGSSFQTVSALHRENLNKLMTNLRSTHPHFVRCIIPNETKSPGVMDNPLVMHQLRCNGVLEGIRICRKGFPNRILYGDFRQRYRILNPAAIPEGQFIDSRKGAEKLLSSLDIDHNQYKFGHTKVFFKAGLLGLLEEMRDERLSRIITRIQAQSRGVLARMEYKKLLERR chain 2: not shown | 24 | 140

— paper doi:10.1101/258020 (bioRxiv, 2018)
